[ ]: non-standard residue; d: D form. Sec = N[C@@H](C[SeH])C(=O)O
Substrate: O=C1NC(=O)C(=O)C(=O)N1
Assay: Substrate specificity, NADPH consumption, wild-type TGR
Assay type: biochemical, Schistosoma mansoni
Settings: pH 7.4; 25.0 °C

B1: wild-type TGR (SmTGR) (Schistosoma mansoni) (protein)
chain: MPPADGTSQWLRKTVDSAAVILFSKTTCPYCKKVKDVLAEAKIKHATIELDQLSNGSAIQKCLASFSKIETVPQMFVRGKFIGDSQTVLKYYSNDELAGIVNESKYDYDLIVIGGGSGGLAAGKEAAKYGAKTAVLDYVEPTPIGTTWGLGGTCVNVGCIPKKLMHQAGLLSHALEDAEHFGWSLDRSKISHNWSTMVEGVQSHIGSLNWGYKVALRDNQVTYLNAKGRLISPHEVQITDKNQKVSTITGNKIILATGERPKYPEIPGAVEYGITSDDLFSLPYFPGKTLVIGASYVALECAGFLASLGGDVTVMVRSILLRGFDQQMAEKVGDYMENHGVKFAKLCVPDEIKQLKVVDTENNKPGLLLVKGHYTDGKKFEEEFETVIFAVGREPQLSKVLCETVGVKLDKNGRVVCTDDEQTTVSNVYAIGDINAGKPQLTPVAIQAGRYLARRLFAGATELTDYSNVATTVFTPLEYGACGLSEEDAIEKYGDKDIEVYHSNFKPLEWTVAHREDNVCYMKLVCRKSDNMRVLGLHVLGPNAGEITQGYAVAIKMGATKADFDRTIGIHPTCSETFTTLHVTKKSGVSPIVSGC[Sec]G
modifications: not fully specified
- Km: 940 ± 90 µM
- kcat: 27.7 ± 0.8 s⁻¹

From PMC3658134
